For this data set, the system named is 3E10 lupus anti-DNA autoantibody (mouse). Briefly: EMSA. The settings on record: 0-10 uM 3E10, 30 min at 4 C, buffer, salt and pH not given (ref 28).
As to duplex DNA with 3' single-stranded tail, the Kd came out at 200 nM.
In the case of “duplex DNA with splayed single-stranded ends” it was 200 nM; in that of blunt-end duplex DNA, 400 nM; in that of duplex DNA with 5' single-stranded tail, 200 nM.
In the case of “duplex DNA with internal bubble (heterology)” it was 400 nM; in that of single-stranded DNA, 200 nM.

Values taken from PMC3713477.
